Assay results from the supplement of paper PMC10567573.

B1: HESX1 (parent)
chain: SKYENYFSASERLSLKRELSWYRG

Variants of: B1
Test: protein stability index of a GFP-peptide fusion (GPS, HEK-293T) (PSI 1-6); higher = more stable
Details: c terminus: a fixed tail appended
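Note: lentivirally expressed fusions sorted by FACS into six bins by GFP to DsRed ratio, PSI derived from sequencing read proportions per bin multiplied by bin number.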

Variant	protein stability index
SKYENYFSASERLSSKRELSWYRG [L15S]	2.41
SKYENYFSASERLSHKRELSWYRG [L15H]	2.07
SKYENYFSASERLSNKRELSWYRG [L15N]	2.33
SKYENYFSASERLSPKRELSWYRG [L15P]	2.57
SKYENYFSASERLSYKRELSWYRG [L15Y]	2.13
SKYENYFSASERLSEKRELSWYRG [L15E]	2.22
SKYENYFSASERLSMKRELSWYRG [L15M]	1.72
SKYENYFSASERLSRKRELSWYRG [L15R]	2.24
SKYENYFSASERLSFKRELSWYRG [L15F]	1.61
SKYENYFSASERLSDKRELSWYRG [L15D]	2.65
SKYENYFSASERLSAKRELSWYRG [L15A]	2.72
SKYENYFSASERLSVKRELSWYRG [L15V]	2.06
SKYENYFSASERLSKKRELSWYRG [L15K]	2.47
SKYENYFSASERLSWKRELSWYRG [L15W]	2.95
SKYENYFSASERLSCKRELSWYRG [L15C]	1.94
SKYENYFSASERLSQKRELSWYRG [L15Q]	2.95
SKYENYFSASERLSTKRELSWYRG [L15T]	1.17
SKYENYFSASERLSIKRELSWYRG [L15I]	1.86
SKYENYFSASERLSLYRELSWYRG [K16Y]	1.94
SKYENYFSASERLSLSRELSWYRG [K16S]	1.9
SKYENYFSASERLSLIRELSWYRG [K16I]	1.8
SKYENYFSASERLSLFRELSWYRG [K16F]	1.37
SKYENYFSASERLSLLRELSWYRG [K16L]	2.21
SKYENYFSASERLSLHRELSWYRG [K16H]	1.78

Variant	protein stability index
SKYENYFSASERLSLPRELSWYRG [K16P]	3.04
SKYENYFSASERLSLNRELSWYRG [K16N]	2.17
SKYENYFSASERLSLRRELSWYRG [K16R]	1.42
SKYENYFSASERLSLVRELSWYRG [K16V]	2.16
SKYENYFSASERLSLARELSWYRG [K16A]	2.32
SKYENYFSASERLSLTRELSWYRG [K16T]	1.95
SKYENYFSASERLDLKRELSWYRG [S14D]	3.59
SKYENYFSASERLNLKRELSWYRG [S14N]	2.25
SKYENYFSASERLRLKRELSWYRG [S14R]	2.03
SKYENYFSASERLCLKRELSWYRG [S14C]	2.07
SKYENYFSASERLWLKRELSWYRG [S14W]	2.21
SKYENYFSASERLLLKRELSWYRG [S14L]	1.02
SKYENYFSASERLYLKRELSWYRG [S14Y]	1.92
SKYENYFSASERLGLKRELSWYRG [S14G]	1.33
SKYENYFSASERLILKRELSWYRG [S14I]	1.27
SKYENYFSASERLMLKRELSWYRG [S14M]	1.74
SKYENYFSASERLQLKRELSWYRG [S14Q]	2.36
SKYENYFSASERLPLKRELSWYRG [S14P]	2.96
SKYENYFSASERLELKRELSWYRG [S14E]	2.14
SKYENYFSASERLHLKRELSWYRG [S14H]	1.99
SKYENYFSASERLFLKRELSWYRG [S14F]	1.73
SKYENYFSASERKSLKRELSWYRG [L13K]	1.9
SKYENYFSASERNSLKRELSWYRG [L13N]	2.31
SKYENYFSASERGSLKRELSWYRG [L13G]	1.93

Variant	protein stability index
SKYENYFSASERDSLKRELSWYRG [L13D]	3.44
SKYENYFSASERPSLKRELSWYRG [L13P]	2.35
SKYENYFSASERMSLKRELSWYRG [L13M]	1.63
SKYENYFSASERYSLKRELSWYRG [L13Y]	1.93
SKYENYFSASERVSLKRELSWYRG [L13V]	2.72
SKYENYFSASERESLKRELSWYRG [L13E]	2.3
SKYENYFSASERSSLKRELSWYRG [L13S]	2.07
SKYENYFSASERFSLKRELSWYRG [L13F]	1.65
SKYENYFSASIRLSLKRELSWYRG [E11I]	1.71
SKYENYFSASHRLSLKRELSWYRG [E11H]	2.76
SKYENYFSASQRLSLKRELSWYRG [E11Q]	2.49
SKYENYFSASARLSLKRELSWYRG [E11A]	1.57
SKYENYFSASVRLSLKRELSWYRG [E11V]	2.37
SKYENYFSASKRLSLKRELSWYRG [E11K]	2.04
SKYENYFSASTRLSLKRELSWYRG [E11T]	1.67
SKYENYFSASYRLSLKRELSWYRG [E11Y]	1.75
SKYENYFSASLRLSLKRELSWYRG [E11L]	2.11
SKYENYFSASNRLSLKRELSWYRG [E11N]	2
SKYENYFSASGRLSLKRELSWYRG [E11G]	1.55
SKYENYFSASDRLSLKRELSWYRG [E11D]	2.39
SKYENYFSASEGLSLKRELSWYRG [R12G]	1.77
SKYENYFSASEHLSLKRELSWYRG [R12H]	2.65
SKYENYFSASEQLSLKRELSWYRG [R12Q]	1.95
SKYENYFSASELLSLKRELSWYRG [R12L]	2.03

Variant	protein stability index
SKYENYFSASESLSLKRELSWYRG [R12S]	2
SKYENYFSASEFLSLKRELSWYRG [R12F]	1.55
SKYENYFSASEDLSLKRELSWYRG [R12D]	2.32
SKYENYFSASEMLSLKRELSWYRG [R12M]	1.06
SKYENYFSASEKLSLKRELSWYRG [R12K]	1.93
SKYENYFSASEVLSLKRELSWYRG [R12V]	1.55
SKYENYFSASEYLSLKRELSWYRG [R12Y]	2.01
SKYENYFSASETLSLKRELSWYRG [R12T]	2.88
SKYENYFSASECLSLKRELSWYRG [R12C]	2.4
SKYENYFSASENLSLKRELSWYRG [R12N]	1.79
SKYENYFSASEELSLKRELSWYRG [R12E]	2.77
SKYENYFSASEILSLKRELSWYRG [R12I]	2.77
SKYENYDSASERLSLKRELSWYRG [F7D]	2.39
SKYENYWSASERLSLKRELSWYRG [F7W]	1.3
SKYENYKSASERLSLKRELSWYRG [F7K]	1.77
SKYENYESASERLSLKRELSWYRG [F7E]	1.96
SKYENYISASERLSLKRELSWYRG [F7I]	1.98
SKYENYYSASERLSLKRELSWYRG [F7Y]	2.63
SKYENYSSASERLSLKRELSWYRG [F7S]	2.83
SKYENYTSASERLSLKRELSWYRG [F7T]	3.02
SKYENYLSASERLSLKRELSWYRG [F7L]	2.64
SKYENYVSASERLSLKRELSWYRG [F7V]	3.05
SKYENYHSASERLSLKRELSWYRG [F7H]	2.72
SKYENYGSASERLSLKRELSWYRG [F7G]	1.42

Variant	protein stability index
SKYENYMSASERLSLKRELSWYRG [F7M]	2.12
SKYENYFSAKERLSLKRELSWYRG [S10K]	2.72
SKYENYFSACERLSLKRELSWYRG [S10C]	2.34
SKYENYFSAAERLSLKRELSWYRG [S10A]	2.07
SKYENYFSAMERLSLKRELSWYRG [S10M]	1.86
SKYENYFSANERLSLKRELSWYRG [S10N]	2.13
SKYENYFSARERLSLKRELSWYRG [S10R]	2.3
SKYENYFSAYERLSLKRELSWYRG [S10Y]	1.67
SKYENYFSAPERLSLKRELSWYRG [S10P]	1.95
SKYENYFSAFERLSLKRELSWYRG [S10F]	1.07
SKYENYFSAWERLSLKRELSWYRG [S10W]	2.31
SKYENYFSAGERLSLKRELSWYRG [S10G]	1.56
SKYENYFSAEERLSLKRELSWYRG [S10E]	3.04
SKYENYFSADERLSLKRELSWYRG [S10D]	2.19
SKYENYFSAQERLSLKRELSWYRG [S10Q]	2.28
SKYENYFSAHERLSLKRELSWYRG [S10H]	2.38
SKYENYFSATERLSLKRELSWYRG [S10T]	2.77
SKYENYFSLSERLSLKRELSWYRG [A9L]	1.58
SKYENYFSWSERLSLKRELSWYRG [A9W]	1.52
SKYENYFSTSERLSLKRELSWYRG [A9T]	2.18
SKYENYFSISERLSLKRELSWYRG [A9I]	1.44
SKYENYFSKSERLSLKRELSWYRG [A9K]	2.01
SKYENYFSDSERLSLKRELSWYRG [A9D]	2.73
SKYENYFSCSERLSLKRELSWYRG [A9C]	2.45

Variant	protein stability index
SKYENYFSFSERLSLKRELSWYRG [A9F]	1.51
SKYENYFSSSERLSLKRELSWYRG [A9S]	1.82
SKYENYFSYSERLSLKRELSWYRG [A9Y]	2.08
SKYENYFSRSERLSLKRELSWYRG [A9R]	1.99
SKYENYFSESERLSLKRELSWYRG [A9E]	3.38
SKYENYFSVSERLSLKRELSWYRG [A9V]	1.41
SKYENYFSMSERLSLKRELSWYRG [A9M]	2.15
SKYENYFSNSERLSLKRELSWYRG [A9N]	2.86
SKYENYFSPSERLSLKRELSWYRG [A9P]	1.4
SKYENYFSHSERLSLKRELSWYRG [A9H]	1.59
SKYENYFSQSERLSLKRELSWYRG [A9Q]	2.01
SKYENYFSASERLSLKRDLSWYRG [E18D]	1.82
SKYENYFSASERLSLKRNLSWYRG [E18N]	2.06
SKYENYFSASERLSLKRPLSWYRG [E18P]	2.07
SKYENYFSASERLSLKRCLSWYRG [E18C]	1.43
SKYENYFSASERLSLKRQLSWYRG [E18Q]	1.52
SKYENYFSASERLSLKRHLSWYRG [E18H]	1.77
SKYENYFSASERLSLKRSLSWYRG [E18S]	1.38
SKYENYFSASERLSLKRRLSWYRG [E18R]	2.5
SKYENYFSASERLSLKRGLSWYRG [E18G]	1.87
SKYENYFSASERLSLKRKLSWYRG [E18K]	1.99
SKYENYFSASERLSLKRILSWYRG [E18I]	1.75
SKYENYFVASERLSLKRELSWYRG [S8V]	1.56
SKYENYFQASERLSLKRELSWYRG [S8Q]	2.26

Variant	protein stability index
SKYENYFCASERLSLKRELSWYRG [S8C]	2.03
SKYENYFFASERLSLKRELSWYRG [S8F]	2.35
SKYENYFEASERLSLKRELSWYRG [S8E]	1.67
SKYENYFAASERLSLKRELSWYRG [S8A]	1.94
SKYENYFIASERLSLKRELSWYRG [S8I]	1.94
SKYENYFDASERLSLKRELSWYRG [S8D]	3.25
SKYENYFNASERLSLKRELSWYRG [S8N]	1.68
SKYENYFLASERLSLKRELSWYRG [S8L]	1.55
SKYENYFMASERLSLKRELSWYRG [S8M]	1.61
SKYENYFKASERLSLKRELSWYRG [S8K]	1.62
SKYENYFHASERLSLKRELSWYRG [S8H]	2.01
SKYENYFRASERLSLKRELSWYRG [S8R]	1.44
SKYENNFSASERLSLKRELSWYRG [Y6N]	2.79
SKYENLFSASERLSLKRELSWYRG [Y6L]	2.85
SKYENTFSASERLSLKRELSWYRG [Y6T]	2.63
SKYENCFSASERLSLKRELSWYRG [Y6C]	1.84
SKYENRFSASERLSLKRELSWYRG [Y6R]	1.84
SKYENKFSASERLSLKRELSWYRG [Y6K]	2.05
SKYENDFSASERLSLKRELSWYRG [Y6D]	2.91
SKYENFFSASERLSLKRELSWYRG [Y6F]	2.88
SKYENHFSASERLSLKRELSWYRG [Y6H]	2.25
SKYENVFSASERLSLKRELSWYRG [Y6V]	1.27
SKYENQFSASERLSLKRELSWYRG [Y6Q]	1.96
SKYENSFSASERLSLKRELSWYRG [Y6S]	2.16

Variant	protein stability index
SKYENEFSASERLSLKRELSWYRG [Y6E]	2.3
SKYENGFSASERLSLKRELSWYRG [Y6G]	2.56
SKYENMFSASERLSLKRELSWYRG [Y6M]	2.15
SKYENYFSASERLSLKYELSWYRG [R17Y]	2.66
SKYENYFSASERLSLKEELSWYRG [R17E]	1.91
SKYENYFSASERLSLKGELSWYRG [R17G]	1.78
SKYENYFSASERLSLKAELSWYRG [R17A]	2.04
SKYENYFSASERLSLKCELSWYRG [R17C]	1.61
SKYENYFSASERLSLKKELSWYRG [R17K]	2.27
SKYENYFSASERLSLKHELSWYRG [R17H]	2.1
SKYENYFSASERLSLKNELSWYRG [R17N]	1.76
SKYENYFSASERLSLKLELSWYRG [R17L]	1.38
SKYENYFSASERLSLKDELSWYRG [R17D]	2.21
SKYENYFSASERLSLKMELSWYRG [R17M]	2.72
SKYENYFSASERLSLKWELSWYRG [R17W]	1.21
SKYENYFSASERLSLKSELSWYRG [R17S]	1.56
SKYENYFSASERLSLKTELSWYRG [R17T]	1.9
SKYENYFSASERLSLKQELSWYRG [R17Q]	2.29
SKYENYFSASERLSLKVELSWYRG [R17V]	3.72
SKYENYFSASERLSLKREASWYRG [L19A]	2.62
